T1: angiopoietin 2 (UniProt O15123 19-496, limits assumed)
T1 construct: also called Ang2; ANGPT2
T1 sequence (looked up): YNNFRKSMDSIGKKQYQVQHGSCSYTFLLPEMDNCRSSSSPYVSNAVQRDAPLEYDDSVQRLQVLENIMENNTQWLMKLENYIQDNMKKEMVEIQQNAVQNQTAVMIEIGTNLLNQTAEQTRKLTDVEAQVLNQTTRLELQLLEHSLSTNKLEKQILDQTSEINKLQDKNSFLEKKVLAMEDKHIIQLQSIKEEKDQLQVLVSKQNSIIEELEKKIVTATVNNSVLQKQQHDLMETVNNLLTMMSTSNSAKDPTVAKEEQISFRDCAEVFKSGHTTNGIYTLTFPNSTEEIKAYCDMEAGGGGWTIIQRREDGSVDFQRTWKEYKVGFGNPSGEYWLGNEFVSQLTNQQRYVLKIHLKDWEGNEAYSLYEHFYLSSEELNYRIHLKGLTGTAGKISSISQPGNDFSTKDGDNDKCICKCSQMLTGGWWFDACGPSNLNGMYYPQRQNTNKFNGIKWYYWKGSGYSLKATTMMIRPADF


Assays:
VEGF-A = target: T2, VEGF-A (UniProt P15692-4 27-191, limits assumed); test: VEGF-A binding ELISA (OD450), titration in pM of the product of plasmid-transfected cells
T2 construct: also called rVEGF; vascular endothelial growth factor
T2 sequence (P15692 other isoform, or with tags, fused parts or gaps limits assumed): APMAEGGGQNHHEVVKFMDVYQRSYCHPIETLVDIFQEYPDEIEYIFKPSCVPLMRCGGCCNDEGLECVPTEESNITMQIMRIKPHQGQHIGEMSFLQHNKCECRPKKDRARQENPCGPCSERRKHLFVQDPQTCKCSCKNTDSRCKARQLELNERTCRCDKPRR

angiopoietin 2 = target: T1, angiopoietin 2; test: Ang2 ELISA, shown relative to Exg102-04; middle bar of each group

| Binder | EC50 (read off the curve) (VEGF-A) | binding result (angiopoietin 2) |
| --- | --- | --- |
| control polypeptide without an Ang BD (Fc fusion, Signal peptide left out; also called EXG102-02; EXG102-03-1; not shown: Fc fragment of human IgG) SDTGRPFVEMYSEIPEIIHMTEGRELVIPCRVTSPNITVTLKKFPLDTLIPDGKRIIWDSRKGFIISNATYKEIGLLTCEATVNGHLYKTNYLTHRQTNTIIDVVLSPSHGIELSVGEKLVLNCTARTELNVGIDFNWEYPSSKHQHKKLVNRDLKTQSGSEMKKFLSTLTIDGVTRSDQGLYTCAASSGLMTKKNSTFVRVHE | ~0.3 nM | no binding |
| Exg102-13 (other, Carries only the N-terminal 21 amino acids of the Fc (Fc-Hinger) and no full Fc; also called Exemplary polypeptide 4) fusion polypeptide (Flt1 signal - VEGFR1 D2 - VEGFR2 D3 - Fc-Hinge - Ang BD): SDTGRPFVEMYSEIPEIIHMTEGRELVIPCRVTSPNITVTLKKFPLDTLIPDGKRIIWDSRKGFIISNATYKEIGLLTCEATVNGHLYKTNYLTHRQTNTIIDVVLSPSHGIELSVGEKLVLNCTARTELNVGIDFNWEYPSSKHQHKKLVNRDLKTQSGSEMKKFLSTLTIDGVTRSDQGLYTCAASSGLMTKKNSTFVRVHEKDKTHTCPPCPAPELLGGPSVGGGGGSGGGGGAQQEECEWDPWTCEHMGSGSATGGSGSTASSGSGSATHQEECEWDPWTCEHMLE |  | no binding |

From patent publication US20240190943A1 (HANGZHOU EXEGENESIS BIO, published 2024)
